From paper doi:10.1101/2021.10.03.462214

Molecular target: human 26S proteasome (human) (UniProt P60900)

- Kd: 239 nM
Substance: K48 linked tetra-ubiquitin chains (from UniProt P0CG47 1-76)
